Results published in US20060148057A1, “Thioredoxin mutants and uses thereof” (priority 2002, published 2006).
Where a chain is given by its changes, count along the chain named. Names may count otherwise.

T1: ASK1 (Homo sapiens, UniProt Q99683)
T1 construct: wild type ASK1 (ASK1-WT, aa 1-1375); expressed in transfected cells; host or cells: BAEC
T1 sequence (Q99683 1-1374): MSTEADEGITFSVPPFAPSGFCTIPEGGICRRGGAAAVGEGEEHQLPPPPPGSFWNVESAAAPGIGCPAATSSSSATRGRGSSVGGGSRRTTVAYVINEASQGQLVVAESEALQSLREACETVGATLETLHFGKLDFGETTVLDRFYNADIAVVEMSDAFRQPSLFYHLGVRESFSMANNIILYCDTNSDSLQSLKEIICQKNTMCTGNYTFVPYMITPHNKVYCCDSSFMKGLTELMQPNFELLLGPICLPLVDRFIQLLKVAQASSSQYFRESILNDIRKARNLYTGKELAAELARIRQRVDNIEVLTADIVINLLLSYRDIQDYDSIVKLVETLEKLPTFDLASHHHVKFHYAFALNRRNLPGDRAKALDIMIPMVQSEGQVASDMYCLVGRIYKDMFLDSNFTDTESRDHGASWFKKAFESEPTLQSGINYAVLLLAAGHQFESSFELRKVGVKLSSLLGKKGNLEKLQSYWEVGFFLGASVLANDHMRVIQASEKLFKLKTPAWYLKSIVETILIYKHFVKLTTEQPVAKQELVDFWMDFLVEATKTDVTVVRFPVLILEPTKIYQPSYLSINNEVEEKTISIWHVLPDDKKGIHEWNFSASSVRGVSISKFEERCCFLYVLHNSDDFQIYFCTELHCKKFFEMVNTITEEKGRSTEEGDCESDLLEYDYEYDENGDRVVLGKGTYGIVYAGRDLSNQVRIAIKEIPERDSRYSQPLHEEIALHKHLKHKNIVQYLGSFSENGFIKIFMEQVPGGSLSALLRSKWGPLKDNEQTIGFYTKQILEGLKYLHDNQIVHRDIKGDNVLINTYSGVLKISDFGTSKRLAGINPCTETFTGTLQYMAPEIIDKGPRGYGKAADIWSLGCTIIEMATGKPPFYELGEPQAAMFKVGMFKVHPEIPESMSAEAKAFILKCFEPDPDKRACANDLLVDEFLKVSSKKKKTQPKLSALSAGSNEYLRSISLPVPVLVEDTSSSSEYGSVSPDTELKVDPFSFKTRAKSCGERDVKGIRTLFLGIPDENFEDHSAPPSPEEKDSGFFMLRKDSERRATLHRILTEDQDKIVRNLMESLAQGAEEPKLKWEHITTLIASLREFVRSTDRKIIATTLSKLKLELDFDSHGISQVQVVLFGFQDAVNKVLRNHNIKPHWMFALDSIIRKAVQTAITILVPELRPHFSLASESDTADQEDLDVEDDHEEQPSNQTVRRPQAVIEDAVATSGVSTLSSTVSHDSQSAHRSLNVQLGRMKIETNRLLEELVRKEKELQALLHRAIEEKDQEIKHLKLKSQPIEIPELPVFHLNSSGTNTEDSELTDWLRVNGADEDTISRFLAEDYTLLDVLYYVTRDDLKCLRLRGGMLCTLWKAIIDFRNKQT

B1: thioredoxin (protein)
chain: MVKQIESKTAFQEALDAAGDKLVVVDFSATWCGPCKMIKPFFHSLSEKYSNVIFLEVDVDDCQDVASECEVKCMPTFQFFKKGQKVGEFSGANKEKLEATINELV
modifications: Flag tag or GST fusion
notes: Flag-tagged or GST fusion
B2: Trx-C35S: C35S single mutant of Trx at the catalytic site, SEQ ID NO:3 (protein)
chain: B1 chain with C35S
B3: Trx-C32S: C32S single mutant of Trx at the catalytic site, SEQ ID NO:2 (protein)
chain: B1 chain with C32S

What was measured:
[1] = molecular target: T1, ASK1; test: GST-Trx pull-down assay; format: binding; conditions: for ASK1 bound to GST-Trx: in the presence of 1 mM DTT; for association of GST-Trx with ASK1: in the presence of 1 mM H2O2
Method: GST-Trx pull-down assay: GST fusion protein preparation and GST pull-down assay were performed as described previously. […] Briefly, GST-Trx fusion proteins expressed in Escherichia coli XL-1 blue were affinity purified on glutathione-Sepharose beads (Pharmacia). 400 μg of cell lysates expressing HA-tagged ASK1 were incubated with 10 μg of GST-Trx bound to glutathione-Sepharose in the lysis buffer containing either 1 mM DTT or 1 mM H2O2. The beads were washed 4 times with the lysis buffer before the addition of boiling Laemmli sample buffer. Bound ASK1 proteins were resolved on SDS-PAGE and detected by Western blot with anti-HA.
Hydrogen peroxide dissociates wild type Trx but not Trx-C32S or Trx-C35S from ASK1 in vitro. Association of ASK1 with various Trx proteins - Trx-WT, Trx-CS, Trx-C32S or Trx-C35S in the presence of 1 mM DTT or H202 in an in vitro GST pull-down assay. Bacteria-expressed GST-Trx proteins were purified and protein concentrations were determined by SDS-PAGE (FIG. 2A). […] ASK1 bound to GST-Trx was determined by Western blot with anti-HA.

[2] = system: JNK; test: ASK1-induced JNK activation in BAEC, in vitro kinase assay with GST-c-Jun; format: cell-based, Bovine; conditions: co-expression with ASK1 1:1, 24 h post-transfection
Method: J Immunol. 159:3508-18 (1997)) using GST-MKK4 and GST-c-Jun (1-80) fusion protein as a substrate, respectively. Briefly, total 400 μg cell lysates were immunoprecipitated with 5 μg of antibody against ASK1 or JNK1 (Santa Cruz). The immunoprecipitates were mixed with 10 μg GST-MKK4 or GST-c-Jun (1-80) suspended in the kinase buffer (20 mM Hepes, pH 7.6, 20 mM MgCl2, 25 mM β-glycerophosphate, 100 μM sodium orthovanadate, 2 mM DTT, 20 μM ATP) containing 1 μl (10 μCi) of [γ-32P] ATP. The kinase assay was performed at 25° C. for 30 min. The reaction was terminated by the addition of Laemmli sample buffer and the phosphorylated GST-MKK4 or GST-c-Jun (1-80) was visualized by autoradiography.
Trx-C32S and Trx-C35S (but not Trx-WT) inhibits ASK1-mediated EC apoptosis induced by TNF. To determine the biological consequence of Trx-induced ASK1 ubiquitination/degradation, the effects of Trx on ASK1-induced apoptosis were examined. ASK1-induced activation of JNK and caspase 3 has been implicated in cell d e a t h (Hatai T et al. Execution of apoptosis signal-regulating kinase 1 (ASK1) induced apoptosis by the mitochondria-dependent caspase activation. J Biol Chem.275:26576-81 (2000); Tournier C et al. Requirement of JNK for stress-induced activation of the cytochrome c- mediated death pathway. Science. 288:870-4 (2000)). First, the effects of Trx on JNK activation induced by ASK1 were examined. BAEC were co-transfected with ASK1 and Trx expression constructs as indicated, and JNK activity was measured by an in vitro kinase assay using GST-c-Jun as a substrate. […] Co-expression of Trx-WT, Trx-C32S and Trx-C35S (but not Trx-CS) inhibited ASK1-induced JNK activity (FIG. 6A top panel). Western blot with anti-Flag indicated equal amounts of Trx proteins were expressed (FIG. 6A bottom panel). Similar results were obtained in human EC (HUVEC).

Row | Molecule | ASK1 bound to GST-Trx [1] | association of GST-Trx with ASK1 [1] | ASK1-induced JNK activity [2]
1 | B1 | bound | disrupted the association | inhibited
2 | B2 | bound | retained their associations with ASK1 | inhibited
3 | B3 | bound | retained their associations with ASK1 | inhibited
